Laboratory results reported in PMC3156716.

Target: T1, His6-PhoP (Pseudomonas aeruginosa PAO1?) (UniProt Q9I4F9)
T1 sequence: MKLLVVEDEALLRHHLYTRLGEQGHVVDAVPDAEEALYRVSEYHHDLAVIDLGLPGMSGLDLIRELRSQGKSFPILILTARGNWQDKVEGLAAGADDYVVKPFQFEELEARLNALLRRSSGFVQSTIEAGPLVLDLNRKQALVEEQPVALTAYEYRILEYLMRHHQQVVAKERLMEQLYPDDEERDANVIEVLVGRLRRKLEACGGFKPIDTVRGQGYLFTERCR
Experiment: EMSA
Details: DIG Gel Shift Kit 2nd Generation (Roche) per manufacturer; 6% native polyacrylamide gel; buffer, salt, pH and temperature not stated

With “GAGGATCCCAGGAGTGATATTAGCGATTCCCAGTGCTCCCGCAACCTGCCAGAAAACCCAGCGAAGCTTCTTCGGCAGCCATTTTAGAAAAATATATTCCTTTAATTTCAATAAGTTACTTAAATTCACCGAGCGTTTTTGGCAAACCTCCCGGGCATTTATCTACTTAGGCTCACACGCCGTGTAAGTTAATGCTTACAAGAGCAGACACAAAAAACCCGGCGGATCCTC (double strand) [rsmZ promoter, full length]” the binding was “binds”.

With “GAGGATCCGTGAATGGCCGGATTATAGCCAAGTGGCCGTGGCAACGGCATAGGCCGCGGAAGCGCCGTGCGGCGCCCGCGGCTTCGGGCCCGGTCAGGACTCGCCGCGCTCGCGGGCGATGGCACGGTAGCCGATGTCCTTGCGGTAGAAGCAGCCGTTCCAGCGGATCTTCTCGGCCAGGCGATAGGCCTGTTGCTGGGCGGCGGACACGCTCTCGCCGATGGCGGTGGCACAGAGCACGCGGCCGCCTCGAGTC (double strand) [truncated retS promoter, 255 bp, lacking PhoP box]” the binding was “no binding”.
